Results on one molecule are retold here after patent US20230257435A1, “Wound Healing Composition and Uses Thereof” (AGENCY FOR SCIENCE, TECHNOLOGY AND RESEARCH, priority 2020, published 2023).

One assay concerns HaCaT cells. Kind of assay: Collective migration on soft/stiff substrates (stencil barrier). Format: cell-based, human. How it is done:
Tissue culture plates were coated with Col-T-gel (Fischer Scientific) of stiffness ranging from 0.8 KPa (soft) to 30 KPa (stiff) as per manufacturer recommendations and allowed to solidify for 40 min at 37° C. inside tissue culture incubators. Some experiments were performed with cells seeded on the poly-hydrogel plates of defined stiffness: 0.2 kPa and 16 kPa soft and hard polyhydrogels, respectively (CytoSoft, Advanced Biomatrix, Inc.,). The determination of stiffness of silicone substrates were done by the manufacturer as per previously published protocols. For certain experiments, indicated amounts of sAgrin was incorporated into the 0.8 KPa collagen gels before gelation process. Upon gelation, trypsinized cells or excised mouse skin explants were plated onto the gels of different stiffness either alone or containing sAgrin. The cells/tissues were incubated under standard culture condition with 500 μl recommended culture medium for the indicated days. The crossbow shaped micropatterns with fibronectin coated islands were generated by microlithography on a 19.5×19.5 mm coverslide from Cytoo, Inc., France. The micropatterns had surface areas of 800μ^2 or 1600μ^2, respectively. Fifty thousand cells after initial siRNA treatment was placed on the micropatterns for 4-6 h before processing them for immunofluorescence. For some experiments, 10 μg/ml sAgrin was added on the slides 18 h prior to the addition of cells.
A confluent monolayer of control and Agrin depleted cells in a 6-well plate was subjected to a unidirectional scratch using a 20 μl pipette tip. This was followed by washing with 1×PBS at room temperature and incubation in complete culture media at 37° C. and 5% CO2 with or without sAgrin used as indicated. Phase contrast images of the wound area were taken periodically at the indicated time-points. For some wound-healing migration assays, keratinocytes were cultured on either soft or stiff substrates within a stencil barrier (Nalge Nunc., Inc) for 18 h. Upon removal of the barrier, the cells were allowed to migrate and imaged using an Axiovert 200 inverted microscope at indicated time-points.

The test system of a further assay is mouse skin punch wounds. Kind of assay: Punch-biopsy wound healing model, splinted. Type of assay: in vivo. How it is done: Six to eight to week old female experimental ICR (nomenclature: IcrTac:ICR) mice purchased from InVivos were used for punch-biopsy wound healing in vivo assays. In the ex-vivo mouse skin explant assay, random ratios of male and female new born ICR mouse pups were used. Wherever possible, the experiments were performed taking into consideration an ethical and reductionist approach of animal usage. Animal studies were not performed in a blinded fashion. The animals were randomly assigned to different experimental groups. The number of animals used for each experiment is indicated in the legend as n=x mice per group. All animal experiments performed were done in accordance with experimental protocols reviewed by the Biological Resource Center (BRC), Agency for Science Technology and Research (A*STAR) under strict compliance to the Institutional Animal Care and Use Committee (IACUC) guidelines for ethical use of animal models in biological research.
The mice were housed under standard conditions of 21° C. and a 12 h light-dark cycle with free access to food. Subsequently, the mice were intraperitoneally (i.p.) anesthezised using Ketamine 100 mg/kg and Xylazin 10 mg/kg diluted in […] of saline solution. The fur was shaved from the base of the neck towards the back on the entire shoulder region. The skin was wiped with an alcohol swab and 10% povidone-iodine (Betadine) antiseptic solution. Circular symmetrical 4 mm wounds were inflicted on either side of the midline in the shoulder region using a sterile 4 mm punch biopsy needle (Integra Miltex, Integra York, P.A., Inc.). The wound skin was carefully removed using a scalpel and a pair of scissors to generate a full-thickness wound that were left open for topical administrations during the analysed time periods. For splinted wound healing models, a 10 mm transparent donut shaped nylon sheet (Grace Bio-Laboratories, Bend, Oreg.) was placed around the 4 mm wound. The splint was placed with the wound at the center, glued to the skin by adhesive (Krazy Glue®; Elmer's Inc.), and covered by Tegaderm dressing. The wounds were treated with different formulations based on either petroleum jelly (Vaseline), a thermoresponsive hydrogel (Pluronic F127-Sigma) or a commercially available skin ointment (Aquaphore-Beiersdorf, Inc.). For Vaseline based ointment cream preparation, 10 mg per cm^2 vaseline ointment was mixed with filtered PBS solutions containing the indicated amounts of Agrin (100 μg, 200 μg or 500 μg) and 100 μg BSA (w/w) were used and applied topically every two days. For siRNA mediated knockdown experiments, 75 nM of indicated siRNAs were incubated with lipofectamine in PBS. Subsequently, a 1:1 mixture of PBS (containing the siRNAs): Aquaphore was applied topically on the wound region every two days. A topical formulation comprising of 20% (w/w) Pluronic F127 (Sigma) was used to dissolve in sterile and 0.22μ filtered solution containing a final concentration of 200 μg/ml sAgrin or BSA. This mixture was dissolved overnight at 4° C. to ensure that liquid phase is achieved. The mixture forms a homogenous gel at temperatures above ˜20° C. and was dispersed topically to cover the wound. Wound closure was assessed using a Vernier caliper every alternate day. For both models, the animals were caged individually throughout the observed time-points of healing at the institutional animal facility. All wound healing animal experiments performed were done in accordance with experimental protocols reviewed by the Biological Resource Center (BRC), Agency for Science Technology and Research (A*STAR) under strict compliance to the Institutional Animal Care and Use Committee (IACUC) guidelines for ethical use of animal models in biological research.
Human skin equivalents and mice skin tissues were harvested, embedded, and subjected to routine histology using Hematoxylin and Eosin. For immunostaining, the tissues were fixed for 24 h in 10% neutral buffered formalin solution. […]

For a further assay, the system named is pMLC. Kind of assay: Force transmission via ligand conjugated magnetic beads. Format: cell-based, human.

B1: sAgrin: C-terminus recombinant Agrin fragment containing 8 amino acid 'Z8' insert and LG3 domain (SEQ ID NO: 7), His-tagged, expressed in E. coli (protein)
chain: DTLAFDGRTFVEYLNAVTESELANEIPVEKALQSNHFELSLRTEATQGLVLWSGKATERADYVALAIVDGHLQLSYNLGSQPVVLRSTVPVNTNRWLRVVAHREQREGSLQVGNEAPVTGSSPLGATQLDTDGALWLGGLPELPVGPALPKAYGTGFVGCLRDVVVGRHPLHLLEDAVTKPELRPCPTP
modifications: His tag
B1: the “collective migration rates on compliant substrates” value in the assay with HaCaT cells (0.8 kPa, sAgrin 10 μg/ml, 24 h) is reported as “significantly promoted migration rates that was comparable to those in stiff ECM alone”. Further, the “K17 expressing leader cells on soft substrates” value in the assay on HaCaT cells (soft substrate, sAgrin 10 μg/ml, 4 h) is “stimulated collective migration by activating K17 expressing leader cells”. The “fraction of K17 expressing leader cells in Agrin depleted cells” value with HaCaT cells (stiff ECM with sAgrin, 4 h) is “significantly restored”. Besides, the “migratory potential of Agrin depleted keratinocytes on stiff substrates” value in the assay on HaCaT cells (stiff matrix with 10 μg/ml sAgrin) is given as “significantly rescued”. In addition, the “K17 expressing migrating cells after MMP12 knockdown” value in the assay on HaCaT cells (stiff substrates (30 kPa), 20 μg/ml sAgrin) was “not restored by the nourishment of sAgrin”. The “wound healing, Pluronic F127” value in the assay with mouse skin punch wounds (200 ug sAgrin vs collagen or BSA, 12 days) is “significantly accelerated wound healing when compared to similar concentrations of collagen or BSA”. In addition, the “pMLC expression in wound edges and beds under MMP12 depletion” value in the assay with mouse skin punch wounds (MMP12 siRNA, 200 μg sAgrin) is “significantly attenuated in MMP12 depleted skin sections”. For the same molecule, the “sAgrin accelerated healing rates and re-epithelialization under MMP12 depletion” value in the assay with mouse skin punch wounds (MMP12 siRNA, 200 μg sAgrin, within 10 days) is given as “dramatically reduced upon MMP12 depletion”. For the same molecule, in the assay with mouse skin punch wounds (day 10), the “CD-31 expressing blood vessels under MMP12 suppression” value is “failed to induce robust CD-31 expressing blood vessels”; the “sAgrin induced mature and mixed collagen fiber deposition under MMP12 depletion” value was “significantly diminished upon MMP12 depletion”. For the same molecule, the “deposition of collagen fibers in wound beds” value in the assay on mouse skin punch wounds (day 10, vs BSA and Collagen) was “higher deposition of mature and mixed collagen fibers”. Further, the “histology of wound area” value in the assay on mouse skin punch wounds (day 10 post-wounding, vs BSA or Collagen) is “predominantly represented healed skin with the emergence of regenerated hair follicles”. In the assay on mouse skin punch wounds (day 12 post-injury, vs BSA or Collagen), the “number of blood vessels and their diameters” value was “increased number of blood vessels and their diameters”. Moreover, the “pMLC recruitment in control cells upon force (bead pull-down Western)” value in the assay on pMLC (siControl cells) is recorded as “greater pMLC recruitment in control cells compared to FN, but similar to that induced by Syndecan-4”. Moreover, the “pMLC with temporal increase of force application” value with pMLC (up to 60 min) is on record as “enhanced pMLC mechanoperception”.
